B1: Aprataxin and PNK-like factor (Homo sapiens), Q8IW19 (parent)
chain: MSGGFELQPRDGGPRVALAPGETVIGRGPLLGITDKRVSRRHAILEVAGGQLRIKPIHTNPCFYQSSEKSQLLPLKPNLWCYLNPGDSFSLLVDKYIFRILSIPSEVEMQCTLRNSQVLDEDNILNETPKSPVINLPHETTGASQLEGSTEIAKTQMTPTNSVSFLGENRDCNKQQPILAERKRILPTWMLAEHLSDQNLSVPAISGGNVIQGSGKEEICKDKSQLNTTQQGRRQLISSGSSENTSAEQDTGEECKNTDQEESTISSKEMPQSFSAITLSNTEMNNIKTNAQRNKLPIEELGKVSKHKIATKRTPHKEDEAMSCSENCSSAQGDSLQDESQGSHSESSSNPSNPETLHAKATDSVLQGSEGNKVKRTSCMYGANCYRKNPVHFQHFSHPGDSDYGGVQIVGQDETDDRPECPYGPSCYRKNPQHKIEYRHNTLPVRNVLDEDNDNVGQPNEYDLNDSFLDDEEEDYEPTDEDSDWEPGKEDEEKEDVEELLKEAKRFMKRK
B2: E3 ubiquitin-protein ligase CHFR (Homo sapiens), Q96EP1-1 (parent)
chain: MERPEEGKQSPPPQPWGRLLRLGAEEGEPHVLLRKREWTIGRRRGCDLSFPSNKLVSGDHCRIVVDEKSGQVTLEDTSTSGTVINKLKVVKKQTCPLQTGDVIYLVYRKNEPEHNVAYLYESLSEKQGMTQESFEANKENVFHGTKDTSGAGAGRGADPRVPPSSPATQVCFEEPQPSTSTSDLFPTASASSTEPSPAGRERSSSCGSGGGGISPKGSGPSVASDEVSSFASALPDRKTASFSSLEPQDQEDLEPVKKKMRGDGDLDLNGQLLVAQPRRNAQTVHEDVRAAAGKPDKMEETLTCIICQDLLHDCVSLQPCMHTFCAACYSGWMERSSLCPTCRCPVERICKNHILNNLVEAYLIQHPDKSRSEEDVQSMDARNKITQDMLQPKVRRSFSDEEGSSEDLLELSDVDSESSDISQPYVVCRQCPEYRRQAAQPPHCPAPEGEPGAPQALGDAPSTSVSLTTAVQDYVCPLQGSHALCTCCFQPMPDRRAEREQDPRVAPQQCAVCLQPFCHLYWGCTRTGCYGCLAPFCELNLGDKCLDGVLNNNSYESDILKNYLATRGLTWKNMLTESLVALQRGVFLLSDYRVTGDTVLCYCCGLRSFRELTYQYRQNIPASELPVAVTSRPDCYWGRNCRTQVKAHHAMKFNHICEQTRFKN

One assay covers variants of B1. Conditions: with parp1_human PARP1, P09874.
Target sequence in this assay (P09874 whole entry): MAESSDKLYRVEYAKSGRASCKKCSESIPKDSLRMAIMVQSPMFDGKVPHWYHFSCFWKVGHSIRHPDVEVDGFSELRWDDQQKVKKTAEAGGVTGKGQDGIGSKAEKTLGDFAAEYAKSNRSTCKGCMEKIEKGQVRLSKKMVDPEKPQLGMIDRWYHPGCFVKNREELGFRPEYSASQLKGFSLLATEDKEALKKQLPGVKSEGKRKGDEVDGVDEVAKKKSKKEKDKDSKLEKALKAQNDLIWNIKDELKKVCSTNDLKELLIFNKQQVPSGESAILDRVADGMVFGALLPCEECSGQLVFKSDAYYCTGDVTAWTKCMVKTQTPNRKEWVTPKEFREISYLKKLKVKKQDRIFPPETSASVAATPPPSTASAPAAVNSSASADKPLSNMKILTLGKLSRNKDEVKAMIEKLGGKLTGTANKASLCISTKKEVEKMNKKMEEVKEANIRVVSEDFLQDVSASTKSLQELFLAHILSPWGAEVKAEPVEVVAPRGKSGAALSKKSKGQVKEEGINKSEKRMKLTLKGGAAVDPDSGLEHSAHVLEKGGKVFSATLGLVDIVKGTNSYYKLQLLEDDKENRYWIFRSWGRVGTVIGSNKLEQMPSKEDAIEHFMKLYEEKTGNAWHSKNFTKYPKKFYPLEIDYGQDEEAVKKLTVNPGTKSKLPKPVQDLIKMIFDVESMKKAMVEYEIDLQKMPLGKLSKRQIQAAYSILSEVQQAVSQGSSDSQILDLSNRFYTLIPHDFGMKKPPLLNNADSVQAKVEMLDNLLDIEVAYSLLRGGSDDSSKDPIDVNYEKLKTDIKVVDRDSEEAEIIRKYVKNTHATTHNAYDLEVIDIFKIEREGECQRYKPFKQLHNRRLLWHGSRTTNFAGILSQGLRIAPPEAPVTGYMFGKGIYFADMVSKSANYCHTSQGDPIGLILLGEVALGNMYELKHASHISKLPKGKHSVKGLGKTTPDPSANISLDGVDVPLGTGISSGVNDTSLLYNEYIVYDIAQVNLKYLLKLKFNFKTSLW
As for MSGGFELQPRDGGPRVALAPGETVIGRGPLLGITDKRVSRRHAILEVAGGQLRIKPIHTNPCFYQSSEKSQLLPLKPNLWCYLNPGDSFSLLVDKYIFRILSIPSEVEMQCTLRNSQVLDEDNILNETPKSPVINLPHETTGASQLEGSTEIAKTQMTPTNSVSFLGENRDCNKQQPILAERKRILPTWMLAEHLSDQNLSVPAISGGNVIQGSGKEEICKDKSQLNTTQQGRRQLISSGSSENTSAEQDTGEECKNTDQEESTISSKEMPQSFSAITLSNTEMNNIKTNAQRNKLPIEELGKVSKHKIATKRTPHKEDEAMSCSENCSSAQGDSLQDESQGSHSESSSNPSNPETLHAKATDSVLQGSEGNKVKRTSAMYGANAYRKNPVHFQHFSHPGDSDYGGVQIVGQDETDDRPEAPYGPSAYRKNPQHKIEYRHNTLPVRNVLDEDNDNVGQPNEYDLNDSFLDDEEEDYEPTDEDSDWEPGKEDEEKEDVEELLKEAKRFMKRK [C379A;C385A;C421A;C427A], the “effect of a mutation on the interaction” value is listed as “disrupting interaction”.

In a further assay the parent is B2. Conditions: with parp1_human PARP1, P09874.
Target sequence in this assay (P09874 whole entry): as the sequence (P09874 whole entry) above
As to C635A;C641A, the “effect of a mutation on the interaction” value is listed as “disrupting interaction”.

These data come from IntAct's records for PubMed 18172500.
